Results from publication PMC5660060.

T1: MSMEG_3765 (TetR3765) (Mycobacterium smegmatis mc2155) (UniProt A0QYS0)
T1 sequence: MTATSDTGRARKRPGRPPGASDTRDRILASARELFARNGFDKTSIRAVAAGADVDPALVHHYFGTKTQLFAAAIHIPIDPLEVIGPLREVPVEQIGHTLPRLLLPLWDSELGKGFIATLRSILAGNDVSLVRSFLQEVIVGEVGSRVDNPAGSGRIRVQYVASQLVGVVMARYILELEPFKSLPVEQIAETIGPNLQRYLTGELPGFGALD

T2: MSMEG_3765 (TetR3765) (Mycobacterium smegmatis mc2155, UniProt A0QYS0 1-211)
T2 sequence: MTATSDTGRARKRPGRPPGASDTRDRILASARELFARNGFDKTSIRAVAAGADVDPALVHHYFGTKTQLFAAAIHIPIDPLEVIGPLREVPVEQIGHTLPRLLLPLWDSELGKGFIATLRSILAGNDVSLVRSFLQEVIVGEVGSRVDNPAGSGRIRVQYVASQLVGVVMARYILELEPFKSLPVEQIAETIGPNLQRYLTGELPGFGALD


target: T1, MSMEG_3765 (TetR3765) (Mycobacterium smegmatis mc2155); test: EMSA; details: 40 mM HEPES pH 8.0, 150 mM NaCl, 20 mM MgCl2, 10% glycerol, 37 C, 20 min; 8% native PAGE, SYBR Safe

Molecule	binding
CCGGATCCGACCTCGACCACCATCGCACGCACACCCCGTCCGGCAATAGTTGCGCCGAGCAGCCGATGCGCGGCCGCGACCGGGTCGATCGCCAGTTCCTCAGCGTTCATCAGAGACGATTGTGCACCGGCCCTTGACAAACCCGCACGACTGGCGGATATTCATCACATGATGATTTCATCAAGTGATGAATTACTTCGCGACGGTGGGGCCCG (double strand) [Rv1687c upstream fragment 200 bp]	binds
CGGGATCCGATCCTGCGGGGCGCCGACGACCACACGCTGTCGCTGATCACCGAGTACGTCGACGTCGCACGGTTGCGGGCCGACATTATCGGCCTGCTGGAGTCCGCCGCCTGAGCCAGGCGTCGCCGACGCCGAAATGTGTCGACGCATCGTCTTCCCACCGGACGACGGCAGGCCTAGAATTCATTGC (double strand) [fragment b 182 bp]	no binding
CGGGATCCGATCCTGCGGGGCGCCGACGACCACACGCTGTCGCTGATCACCGAGTACGTCGACGTCGCACGGTTGCGGGCCGACATTATCGGCCTGCTGGAGTCCGCCGCCTGAGCCAGGCGTCGCCGACGCCGAAATGTGTCGACGCATCGTCTTCCCACCGGACGACGGCAGGCCTAGAATTCATTGCATGATGACTTCATCGCGCGATGAATTGTCAGCGACGGGGCCCG (double strand) [MSMEG_3762 upstream fragment 218 bp]	binds
CGGGCCCGATCCACGCTGGCCATGGCATCGGTGGTCGGTTCGTCGCTCATGTCGTCAAGTTAGCTTGACGACATGAGCGGCGTCAAGAAAACTTGACACAAAAGGAACAGGCACAATCGCATCGATGAGCGTCGACCTGCTGACCGGTGATCCGATCGCCGCGGCACGTCGGCTGATCGGCGCCCACCTCGTCGGGCGGGACGTCACCGCCACGATCGTCGAGGTCGAGGCCTACGGCGGACCGCCGGACGGCCCGTGGCCGGACGCGGCGTCGCATTCGTTCCGGATCCCG (double strand) [MSMEG_3760 upstream fragment (from GFP assay) 277 bp]	no binding
CTGCTGGAGTCCGCCGCCTGAGCCAGGCGTCGCCGACGCCGAAATGTGTCGACGCATCGTCTTCCCACCGGACGACGGCAGGCCTAGAATTCATTGC (double strand) [fragment c 97 bp]	no binding
CTGCTGGAGTCCGCCGCCTGAGCCAGGCGTCGCCGACGCCGAAATGTGTCGACGCATCGTCTTCCCACCGGACGACGGCAGGCCTAGAATTCATTGCATGATGACTTCATCGCGCGATGAATTGTCAGCGACGGGGCCCG (double strand) [fragment a 133 bp]	binds
GACGCTCATCGATGCGATTGTGCCTGTTCCTTTTGTGTCAAGTTTTCTTGACGCCGCTCATGTCGTCAAGCTAACTTGACGACATGAGCGACGAACCGACCACCGATGCCATGGCCAGCGTGGATCGGGCCCG (double strand) [MSMEG_3760 upstream fragment 127 bp (negative control)]	no binding

target: T2, MSMEG_3765 (TetR3765); test: EMSA; 1.5-20 pmol protein; 40 mM HEPES pH 8.0, 150 mM NaCl, 20 mM MgCl2, 10% glycerol, 37 C, 20 min; 8% native PAGE, SYBR Safe; details: protein: recombinant; tags: C-terminal His (pET-22b(+), NdeI-XhoI); chain copies: 2

Molecule	binding result
fragment d 36 bp TetR motif (dsDNA) DNA 1: AATTCATTGCATGATGACTTCATCGCGCGATGAATT DNA 2: AATTCATCGCGCGATGAAGTCATCATGCAATGAATT	binds
